Assay results from patent US10202593B2, “Evolved sortases and uses thereof” (President and Fellows of Harvard College, priority 2013, dated 2019).
Read-outs that look alike come from different tables or passages of the source.

Columns and labels:
Format in all cases: biochemical
[1] = test system: LPETG (Abz-LPETGK(Dnp)-CONH2); assay: In vitro sortase kinetics HPLC assay, LPETG substrate
Experimental: (§1) See below for details on sortase expression and purification, and on the synthesis of Abz-LPETGK(Dnp)-CONH2 (SEQ ID NO: 19). […] Reactions were initiated with the addition of enzyme and incubated at 22.5° C. for 3 to 20 minutes before quenching with 0.5 volumes of 1 M HCl. Five to ten nmol of peptide from the quenched reactions were injected onto an analytical reverse-phase Eclipse XDB-C18 HPLC column (4.6×150 mm, 5 μm, Agilent Technologies) and chromatographed using a gradient of 10 to 65% acetonitrile with 0.1% TFA in 0.1% aqueous TFA over 13 minutes. Retention times under these conditions for the Abz-LPETGK(Dnp)-CONH2 (SEQ ID NO: 19) substrate, the released GKDnp peptide, and the Abz-LPETGGG-COOH (SEQ ID NO: 20) product were 12.8, 10.4, and 9.1 min, respectively. To calculate the percent conversion, the ratio of the integrated areas of the Abz-LPETGGG-COOH (SEQ ID NO: 20) and Abz-LPETGK(Dnp)-CONH2 (SEQ ID NO: 19) peptide Abs220 peaks was compared to a standard curve generated by mixing the product and starting peptide in known ratios. To determine […] and Km, reaction rates were fit to the Michaelis-Menten equation using OriginPro 7.0 software. All kinetics values reported represent the average of at least three measurements. Percent conversion was also calculated by using the ratio of the integrated areas of the GK(Dnp)-CONH2 and Abz-LPETGK(Dnp)-CONH2 peptide Abs355 peaks were compared directly (Example 5). To determine kcat and Km, LPETG, reaction rates were fit to the Michaelis-Menten equation using Microsoft Excel using the Solver add-in. To determine Km,GGG and KH, reaction rates were fit to the modified Michaelis-Menten, for which KH is as defined when KH<<Km,GGG.
(§2) Assays to determine eSrtA, eSrtA(2A-9) and eSrtA(4S-9) specificity were performed by preparing 10 μM stocks of Abz-LXEXGK(Dnp) (SEQ ID NO: 75) peptides in 300 mM Tris pH 7.5, 150 mM NaCl, 5 mM CaCl2, 5% v/v DMSO, and 100 mM Gly-Gly-Gly-COOH (GGG). Reactions were performed by adding eSrtA(2A-9) to a final concentration of 450 nM, eSrtA(4S-9) to a final concentration of 115 nM or eSrtA to a final concentration of 47.5 nM and a final volume of 100 μL, then incubating at 22.5° C. for 15 minutes. Reactions were quenched by the addition of 0.2 volumes of 5 M HCl, then were injected onto an analytical reverse-phase Eclipse XDB-C18 HPLC column (4.6×150 mm, 5 μm, Agilent Technologies) and chromatographed using a gradient of 10 to 65% acetonitrile with 0.1% TFA in 0.1% aqueous TFA over 13 minutes. Retention times under these conditions for the Abz-LPETGK(Dnp)-CONH2 (SEQ ID NO: 19) substrate, the released GKDnp peptide, and the Abz-LPETGGG-COOH (SEQ ID NO: 20) product were 12.8, 10.4, and 9.1 min, respectively, while the remaining Abz-LXEXGK(Dnp)-CONH2 (SEQ ID NO: 74) substrates varied in retention time between 9 and 13 minutes. To calculate the percent conversion, the ratio of the integrated areas of the GK(Dnp)-CONH2 and Abz-LPETGK(Dnp)-CONH2 (SEQ ID NO: 19) peptide Abs355 peaks were compared directly. Subsequent determination of kcat/Km and KH were performed as described for in vitro SrtA characterization.
(§3) In each case, rate constants were determined by measuring enzyme velocity at eight different substrate concentrations by HPLC assay, then fit using nonlinear regression to the Michaelis-Menten equation, yielding kcat and Km. KH was calculated by measuring enzyme velocity at 1 mM target substrate and eight different GGG concentrations by HPLC assay, then fitting the resulting curves using nonlinear regression to the modified Michaelis-Menten equation.

[2] = test system: LAETG (Abz-LAETGK(Dnp)-CONH2); assay: In vitro sortase kinetics HPLC assay, LAETG substrate; conditions: for increase in kcat/Km for LAETG as compared to LPETG / increased affinity (KM) for the LAETG substrate as compared to the LPETG substrate: FIG. 1; for preference for LAETG over LPETG / preference for LPETG over LAETG: ratio of kcat/KM; for Specificity (relative catalytic efficiency, fold): ratio of kcat/KM between 2A (LAETG) and wt (LPETG); for specificity (relative cat. Efficiency, fold): ratio of kcat/Km between 2A (LAETG) and wt (LPETG) substrates, favoured over disfavoured; for kcat, 1 mM LxExG (Hz) / kHydrolysis (Hz): GGG varied; for kHydrolysis (Hz): 1 mM
Experimental: as §1, §2, §3

[3] = test system: LPESG (Abz-LPESGK(Dnp)-CONH2); assay: In vitro sortase kinetics HPLC assay, LPESG substrate; conditions: reversion of V182
Experimental: as §1, §2, §3

[4] = Example 5 variants, substrate wt (LPETG)
[5] = Example 5 variants, substrate wt (LPETG), read-out: Avg KM
[6] = substrate wt (LPETG), read-out: Km, LxExG
[7] = Example 5 variants, substrate 2A (LAETG)
[8] = Example 5 variants, substrate 2A (LAETG), read-out: Avg KM
[9] = substrate 2A (LAETG), read-out: Km, LxExG
[10] = 1 mM 2A (LAETG) substrate, read-out: Km, GGG

B1: eSrtA(2A-4): 5mut + A104H K162R V168I I182V (protein)
chain: QAKPQIPKDKSKVAGYIEIPDADIKEPVYPGPATREQLNRGVSFHEENESLDDQNISIAGHTFIDRPNYQFTNLKAAKKGSMVYFKVGNETRKYKMTSIRNVRPTAVEILDEQKGKDKQLTLVTCDDYNEETGVWETRKIFVATEVK
Avg kcat (Hz) [1, 4]: 0.0501 Hz | Km [1, 5]: 5180 µM | kcat, 10 mM GGG (Hz) ([1]; substrate wt (LPETG)): 0.09356 Hz | Km [1, 6]: 11700 µM | Avg kcat (Hz) [2, 7]: 1.988 Hz | Km [2, 8]: 3720 µM | increase in kcat/Km for LAETG as compared to LPETG [2]: ~40 fold | preference for LAETG over LPETG [2]: 73 fold | Specificity (relative catalytic efficiency, fold) [2]: 55.11 fold | specificity (relative cat. Efficiency, fold) [2]: 73.05 fold | kcat, 10 mM GGG (Hz) ([2]; substrate 2A (LAETG)): 1.901 Hz | Km [2, 9]: 3250 µM

B2: eSrtA(2A-3): round 3 LAETG clone: eSrtA + K84R F122S D124G K134R K145E K162R V168I K177R I182F (protein)
chain: QAKPQIPKDKSKVAGYIEIPDADIREPVYPGPATREQLNRGVSFAEENESLDDQNISIAGHTSIGRPNYQFTNLRAAKKGSMVYFEVGNETRKYKMTSIRNVRPTAVEILDEQKGKDRQLTLFTCDDYNEETGVWETRKIFVATEVK
Avg kcat (Hz) [1, 4]: 2.653 Hz | Km [1, 5]: 2100 µM | Avg kcat (Hz) [2, 7]: 1.117 Hz | Km [2, 8]: 1620 µM | preference for LPETG over LAETG [2]: 1.4 fold | Specificity (relative catalytic efficiency, fold) [2]: 1.436 fold | reduced catalytic efficiency ([2]; round 3 clone, LAETG target): > 10 fold

B3: 2A.6B: 5mut + R99K A104H K138V D160K* K162R I182V (protein)
chain: QAKPQIPKDKSKVAGYIEIPDADIKEPVYPGPATREQLNKGVSFHEENESLDDQNISIAGHTFIDRPNYQFTNLKAAKVGSMVYFKVGNETRKYKMTSIRKVRPTAVEVLDEQKGKDKQLTLVTCDDYNEETGVWETRKIFVATEVK
Khydrolysis ([2]; 1 mM 2A (LAETG) substrate): 12.49 µM | kcat, 1 mM LxExG (Hz) ([2]; 1 mM 2A (LAETG) substrate): 0.5359 Hz | Km [2, 10]: 642 µM | kL/KL/KH ([2]; substrate 2A (LAETG)): 1.81E+08 | kHydrolysis (Hz) ([2]; substrate 2A (LAETG)): 0.01048 Hz | kcat, 10 mM GGG (Hz) ([2]; substrate 2A (LAETG)): 0.6977 Hz | Km [2, 9]: 310 µM

B4: 2A.6C: 5mut + A104H K138P K152I D160K* K162R I182V (protein)
chain: QAKPQIPKDKSKVAGYIEIPDADIKEPVYPGPATREQLNRGVSFHEENESLDDQNISIAGHTFIDRPNYQFTNLKAAKPGSMVYFKVGNETRIYKMTSIRKVRPTAVEVLDEQKGKDKQLTLVTCDDYNEETGVWETRKIFVATEVK
kcat, 10 mM GGG (Hz) ([1]; substrate wt (LPETG)): 0.07676 Hz | Km [1, 6]: 1980 µM | Khydrolysis ([2]; 1 mM 2A (LAETG) substrate): 12.49 µM | kcat, 1 mM LxExG (Hz) ([2]; 1 mM 2A (LAETG) substrate): 0.5359 Hz | Km [2, 10]: 642 µM | increased affinity (KM) for the LAETG substrate as compared to the LPETG substrate [2]: ~61 fold | specificity (relative cat. Efficiency, fold) [2]: 61.61 fold | kL/KL/KH ([2]; substrate 2A (LAETG)): 1.91E+08 | kHydrolysis (Hz) ([2]; substrate 2A (LAETG)): 0.01048 Hz | kcat, 10 mM GGG (Hz) ([2]; substrate 2A (LAETG)): 0.8129 Hz | Km [2, 9]: 343 µM

B5: eSrtA(2A-5): 5mut + R99H A104H K138I K162R I182V (protein)
chain: QAKPQIPKDKSKVAGYIEIPDADIKEPVYPGPATREQLNHGVSFHEENESLDDQNISIAGHTFIDRPNYQFTNLKAAKIGSMVYFKVGNETRKYKMTSIRNVRPTAVEVLDEQKGKDKQLTLVTCDDYNEETGVWETRKIFVATEVK
kcat, 10 mM GGG (Hz) ([1]; substrate wt (LPETG)): 0.1375 Hz | Km [1, 6]: 4900 µM | Khydrolysis ([2]; 1 mM 2A (LAETG) substrate): 615.9 µM | kcat, 1 mM LxExG (Hz) ([2]; 1 mM 2A (LAETG) substrate): 1.493 Hz | Km [2, 10]: 2810 µM | increase in kcat/Km for LAETG as compared to LPETG [2]: ~125 fold | increased affinity (KM) for the LAETG substrate as compared to the LPETG substrate [2]: ~116 fold | KH ([2]; GGG concentration at which hydrolysis and transpeptidation rates are equal, unit not given): 731±235 | specificity (relative cat. Efficiency, fold) [2]: 115.7 fold | kL/KL/KH ([2]; substrate 2A (LAETG)): 5.29E+06 | kHydrolysis (Hz) ([2]; substrate 2A (LAETG)): 0.324 Hz | kcat, 10 mM GGG (Hz) ([2]; substrate 2A (LAETG)): 1.41 Hz | Km [2, 9]: 433 µM

B6: SrtA: wild-type Staphylococcus aureus sortase A (SEQ ID NO: 1) (protein)
chain: MKKWTNRLMTIAGVVLILVAAYLFAKPHIDNYLHDKDKDEKIEQYDKNVKEQASKDKKQQAKPQIPKDKSKVAGYIEIPDADIKEPVYPGPATPEQLNRGVSFAEENESLDDQNISIAGHTFIDRPNYQFTNLKAAKKGSMVYFKVGNETRKYKMTSIRDVKPTDVEVLDEQKGKDKQLTLITCDDYNEKTGVWEKRKIFVATEVK
modifications: S. aureus
KH ([1]; 1 mM LPETG): 14.3 ± 0.8 µM | KN ([1]; 1 mM LPETG, eight GGG concentrations): 14.3 ± 0.8 µM | Km ([1]; 1 mM LPETG, read-out: Km,GGG): 211 ± 8 µM | Khydrolysis ([1]; 1 mM wt (LPETG) substrate): 28.38 µM | kcat, 1 mM LxExG (Hz) ([1]; 1 mM wt (LPETG) substrate, GGG varied): 0.1731 Hz | Km ([1]; 1 mM wt (LPETG) substrate, read-out: Km, GGG): 291 µM | KH,LPETG ([1]; LPETG substrate): 14.3 ± 0.8 µM | Kcat (Hz) ([1]; Sub LPETG, 100 mM GGG): 1.5 ± 0.2 Hz | Km ([1]; Sub LPETG, 100 mM GGG, read-out: Km): 7600 ± 500 µM | Rel. Activity ([1]; Sub LPETG, kcat/Km of the enzyme's preferred substrate relative to kcat/Km on this substrate): 1 | Kcat (Hz) ([1]; Table 2, Sub LPETG): 1.5 ± 0.2 Hz | Km ([1]; Table 2, Sub LPETG, read-out: Km): 7600 ± 500 µM | kL/KL/KH ([1]; substrate wt (LPETG)): 8.30E+06 | kHydrolysis (Hz) ([1]; substrate wt (LPETG), 1 mM, GGG varied): 0.01657 Hz | kcat, 10 mM GGG (Hz) ([1]; substrate wt (LPETG)): 1.221 Hz | Km [1, 6]: 5180 µM

B7: eSrtA(4S-9) V182I (protein)
chain: QAKPQIPKDKSKVAGYIEIPDADIKEPVYPGPATREQLDRGVCFVEENESLDDQNISITGHTAIDRPNYQFTNLRAAKKGSMVYLKVGNETRKYKMTSIRNVKPTAVEVLDEQKGKDKQLTLITCDDYNFETGVWETRKIFVATEVK
selectivity and overall activity [3]: preserved selectivity but decreased overall activity

B8: eSrtA(2A-9) H104A (protein)
chain: QAKPQIPKDKSKVAGYIEIPDADIKEPVYPGPATREQLNRGVCFADENESLDDQNISIAGHTFIDRPNYQFTNLKAAKPGSMVYFKVGNETRIYKMTSIRKVHPNAVEVLDEQEGKDKQLTLVTCDDYNEETGVWESRKIFVATEVK
preference for LPETG over LAETG [2]: 60 fold

B9: eSrtA(2A-9) V182I (protein)
chain: QAKPQIPKDKSKVAGYIEIPDADIKEPVYPGPATREQLNRGVCFHDENESLDDQNISIAGHTFIDRPNYQFTNLKAAKPGSMVYFKVGNETRIYKMTSIRKVHPNAVEVLDEQEGKDKQLTLITCDDYNEETGVWESRKIFVATEVK
preference for LAETG over LPETG [2]: 85 fold | activity level for LAETG ([2]; reversion of V182): lowers the activity level for LAETG
